Measured values published in patent US20140178375A1 (TRUSTEES OF THE UNIVERSITY PF PENNSYLVANIA, published 2014).
Numbering of substitutions follows the chain as printed. In names and notes the source's numbering stands.

B1: LS22FcT322AG7 (Fc fusion)
chain: MLCGGGGYCFPDEEGACYGGGGGSDKTHTCPPCPAPELLGGPSVFLFPPKPKDTLMISRTPEVTCVVVDVSHEDPEVKFNWYVDGVEVHNAKTKPREEQYNSAYRVVSVLTVLHQDWLNGKEYKCKVSNKALPAPIEKTISKAKGQPREPQVYTLPPSRDELTKNQVSLTCLVKGFYPSDIAVEWESNGQPENNYKTTPPVLDSDGSFFLYSKLTVDKSRWQQGNVFSCSVMHEALHNHYTQKSLSLSLEHHHHHH
notes: It has the N-terminal MLCGGGG before the S22 peptide, the T322A Fc and a His tag; also called S22-FcT322A#2; S22FcT322A#2
B2: LS22FcG7 (Fc fusion)
chain: B1 chain with A103T
notes: Wild type Fc fragment with the N-terminal MLCGGGG before the S22 peptide, and a His tag
B3: LS22FcT322AS7 (Fc fusion)
S22 peptide-Fc fusion chain with C-terminal His tag: B1 chain with G7S
B4: S22-Fc (Fc fusion)
chain: MAYCFPDEEGACYGGGGGSDKTHTCPPCPAPELLGGPSVFLFPPKPKDTLMISRTPEVTCVVVDVSHEDPEVKFNWYVDGVEVHNAKTKPREEQYNSTYRVVSVLTVLHQDWLNGKEYKCKVSNKALPAPIEKTISKAKGQPREPQVYTLPPSRDELTKNQVSLTCLVKGFYPSDIAVEWESNGQPENNYKTTPPVLDSDGSFFLYSKLTVDKSRWQQGNVFSCSVMHEALHNHYTQKSLSLSLEHHHHHH
notes: S22 peptide, glycine-serine linker, human IgG1 Fc (hinge part, CH2, CH3) and C-terminal His tag; Expressed in E. coli and purified on Ni-sepharose; also called S22-Fc fusion protein
B5: S22-FcT322A (Fc fusion)
chain: B4 chain with T98A

Assays:
human EGFR on NE91 cells [1] = molecular target: T1, human EGFR on NE91 cells (human, UniProt P00533 25-1210); experiment: FACS on NE91 cells
T1 construct: whole, on cells; also called epidermal growth factor receptor

[2] = molecular target: T2, human HER2 on T6-17 cells (human, UniProt P04626 23-1255); experiment: FACS on T6-17 cells expressing human HER2, detected by anti-his tag and secondary antibodies; control (anti-his tag and secondary antibodies only) has Geo mean 3.99
T2 construct: whole, on cells; also called HER2/neu; human epidermal growth factor receptor 2

human EGFR on NE91 cells [3] = molecular target: T1, human EGFR on NE91 cells; experiment: FACS, 100 ug S22-Fc on 1x10^5 cells, anti-His detection
Protocol: FACS analysis was used to detect binding of S22-Fc to HER2-expressing cell lines. Purified S22-Fc was used in FACS experiments to stain cells with different expression levels of HER2 and EGFR. Initially, 1×10⁵ cells were incubated with 100 μg S22-Fc for 30 minutes on ice. The cells were then washed and incubated with his-tag-specific rabbit antisera and secondary Alexa488-conjugated anti-rabbit antibodies, used sequentially. As a negative control, parallel cell preparations were exposed to only his-tag-specific rabbit antisera and secondary antibodies.

[4] = molecular target: T2, human HER2 on T6-17 cells; experiment: FACS on T6-17 cells

Binder | binding result (human EGFR on NE91 cells [1]) | FACS Geo mean [2] | binding result (human EGFR on NE91 cells [3]) | binding result [4]
B1 | binds | 39.1 |  | 
B2 |  | 51 |  | 
B3 |  | 28.7 |  | 
B4 |  | 27.2 | binds | 
B5 | binds |  |  | binds
